Molecular target: T1, MUC5ac mucin (PAM4 antigen) from CaPan1 human pancreatic carcinoma (human, UniProt P98088 28-5654, limits assumed, heavily glycosylated native mucin)
T1 construct: The antigen was never used as a pure recombinant protein; also called CaPan1 Ag; CaPan1 antigens
Assay: ELISA on target mucin antigen (FIG. 9)

- EC50: 1.83 nM
B1: PAM4-F(ab′)2 (other)
chain 1: EVQLQESGPELVKPGASVKMSCKASGYTFPSYVLHWVKQKPGQGLEWIGYINPYNDGTQYNEKFKGKATLTSDKSSSTAYMELSRLTSEDSAVYYCARGFGGSYGFAYWGQGTLITVSA
chain 2: DIVMTQSPAIMSASPGEKVTMTCSASSSVSSSYLYWYQQKPGSSPKLWIYSTSNLASGVPARFSGSGSGTSYSLTISSMEAEDAASYFCHQWNRYPYTFGGGTKLEIK

From US20140227179A1 (published 2014)
